Assay results taken from patent publication US7211434B2, “Primitive neural stem cells and method for differentiation of stem cells to neural cells” (priority 2000, dated 2007).

Tests used:
Type in all cases: cell-based, mouse
[1] = tested on: ES-derived neural sphere colony cells; test: Subcloning of single ES-derived sphere colonies (secondary colony formation, self-renewal); conditions: subcloned single primary colonies; factor alone
Protocol: Self-renewal of primary colony-formin) ES cells was assessed as previously described (Tropepe et al., 1999). Single sphere colonies were isolated, mechanically dissociated into a single cell suspension in 0.2 ml of serum-free media containing various combinations of LIF (1000 U/ml), […] (10 ng/ml), heparin (2 (g/ml), EGF (20 ng/ml; Upstate Biotech) or B27 supplement (1X) and cultured in 96-well (Nunclon) plates. Secondary sphere colonies were quantified after 7–10 days. A similar procedure was used for repeated passaging experiments. Cell viability after a 7-day culture period (sphere colony assay) or after 4–24 hours (short-term ES differentiation assay) was determined using trypan blue exclusion (1:2 dilution of 0.4% trypan blue; Gibco).

[2] = tested on: ES cells; test: Primary neural sphere colony formation from ES cells in serum-free low-density culture, 7 days; conditions: for primary colony formation, factor alone: ES cells at relatively low cell densities, serum-free, 7 days in vitro
Protocol: For passaging ES cells, cultures were disaggregated with 0.05% trypsin dissolved in Tris-saline/EDTA for 5–10 minutes, mechanically dissociated, centrifuged and resuspended in culture medium.
Passaged ES cells were washed (2 times), centrifuged and resuspended in chemically defined serum-free media (Reynolds et al., 1992; Reynolds & Weiss, 1996) composed of a 1:1 mixture of Dulbecco's modified Eagle's medium (DMEM GIBCO) and F-12 nutrient (GIBCO) including 0.6% glucose (Sigma), 2 mM glutamine (GIBCO), 3 mM sodium bicarbonate (Sigma), and 5 mM HEPFS buffer (Sigma). A defined hormone and salt mixture (Sigma) that included insulin (25 (g/ml), transferrin (100 (g/ml), progestrone (20 nM), putrescine (60 (M), and selenium chloride (30 nM) was used instead of serum. ES cells were plated at various cell densities in 24-well culture plates (Nunclon) in the presence of either LIF (1000 U/ml), LIF+FGF2 (10 ng/ml; Upstate Biotech or Sigma) and 2 (g/ml heparin (Sigma), or in the absence of any exogenous growth factors. For short term (4–24 hours) neural differentiation, ES cells were plated in identical culture conditions in 24-well culture plates (Nunclon) that were precoated with poly-L-ornithine (15 μg/ml, Gibco).
Limiting dilution analysis was performed as previously described (Bellows and Aubin, 1989; Tropepe et al., 1999). ES cells were plated in 24-well plates containing LIF (1000 U/ml). Cell numbers were adjusted to give a starting concentration of 5000 cells/ml from which serial dilutions were made. Final cell dilutions ranged from 1000 cells per well to 1 cell per well in 0.5 ml aliquots. Cultures were left undisturbed for 7 days after which time the fraction of wells not containing sphere colonies for each cell plating density was calculated and those points were plotted against the number of cells plated per well. The number of cells required to form one sphere colony, which reflected the proportion of neural stem cells in the entire population, was then determined from the point at which the regression line crossed the 0.37 level (37%). That is […], where F0 is the fraction of wells without sphere colonies and x is the mean number of cells per well. Based on a Poisson distribution of cells, F0=0.37 corresponds to the dilution at which there is one neural stem cell per well. The linear relationship observed between the cell density and the number of sphere colonies generated (regression coefficient R^2=0.99) can be accounted for by the clonal proliferation of a single rare population of cells.
Neuro2a (a murine neuroblastoma cell line) cells were seeded at 1×10^6 cells per 100 mm petri dish and transiently transfected with 10 μg of plasmid DNA by means of LipofectAMINE (Gibco) according to the manufacturer's instructions. After 6 hours, the culture media was changed to 10 ml of DMEM+10% FBS (Gibco). Twenty-four hours after transfection, culture media was changed to […] of serum-free media. Seventy-two hours after transfection, cell supernatant was collected and centrifuged to remove cellular debris. Supernatant media was aliquoted and stored at −70° C. […] Thus data from the 20% (v/v) experiments were used for the analysis. The plasmids pCS-V2 (gift from Dr. R. Moon) Hoppler et al., 1996) and pCS-cer-I (a gift from Dr. E. De Robertis) (Belo et al., 1997) were used.

[3] = tested on: ES derived neural colonies; test: RT-PCR gene expression in ES-derived neural colonies; conditions: mCer-1 enriched media versus control media; data not shown
Protocol: Total RNA was isolated using the RNeasy extraction kit (Qiagen) and 1 μg of total RNA was used to synthesize cDNA with oligo-d(T)12-18 primers and MuMLV reverse transcriptase (Superscript II; Boehringer-Mannheim) at 42° C. for 1 hour. The PCR mixture (20 μl) consisted of 1 μl cDNA, 16 pmol 5 ″ primer, 16 pmol 3′ primer, specific for the gene in question 0.2 mM dNTP, 2 μl PCR reaction buffer and 0.8 U of Taq polymerase (Promega). cDNA was amplified in a thermal cycler (Perkin-Elmer) For all primer pairs denaturation for 30 sec at 94° C., annealing for 30 sec and extension at 72° C. was used. The sense and antisense primers, Mg^2 concentration, annealing temperature, extension time and number of PCR cycles were used for the following genes. Emx2: sense 5′-[…]-3′ (SEQ ID. No. 1), antisense 5′ […]-3′(SEQ. ID. No. 2), 1.65 mM Mg^2+, 56° C., 40 sec, 40 cycles. HoxB1: sense 5′-CCGGACCTTCGACTGGATG-3′(SEQ. ID. No. 3). antisense 5′-GGTCAGAGGCATCTCCAGC-3′(SEQ. ID. No. 4), 1.35 mM Mg^2+, 58° C., 40 sec, 40 cycles. Otx1: sense 5′-[…]-3′(SEQ. ID. No. 5). antisense 5′-[…]-3′(SEQ. ID. No. 6), 1.65 mM Mg^2+, 58° C., 40 sec, 40 cycles. Six3: sense 5′-[…]-3′(SEQ. ID. No. 7), antisense 5′-[…]-3′(SEQ. ID. No. 8), 1.35 mM Mg^2+, 56° C., 40 sec, 40 cycles. Brechyury: sense 5′-[…]-3′(SEQ. ID. No. 9), antisense 5′-[…]-3′(SEQ. ID. No. 10), 1.65 mM Mg^2+, 56° C., 1 min. 35 cycles. […]

B1: FGF2: fibroblast growth factor family growth factor, 10 ng/ml with heparin (protein)
chain: PALPEDGGAAFPPGHFKDPKRLYCKNGGFFLRIHPDGRVDGVREKSDPHVKLQLQAEERGVVSIKGVCANRYLAMKEDGRLLASKCVTEECFFFERLESNNYNTYRSRKYSSWYVALKRTGQYKLGSKTGPGQKAILFLPMSAKS
- secondary neural stem cell colony formation [1]: dependent upon the presence of exogenous FGF2
- primary colony formation, factor alone [2]: no cell colonies were generated
- primary colony formation, factor combined with LIF versus LIF alone ([2]; combined with LIF): non-significant trend toward facilitating LIF-dependent colony formation

B2: BMP4: Human recombinant BMP4 protein provided by Genetics Institute Inc. (protein)
chain: SPKHHPQRSRKKNKNCRRHSLYVDFSDVGWNDWIVAPPGYQAFYCHGDCPFPLADHLNSTNHAIVQTLVNSVNSSIPKACCVPTELSAISMLYLDEYDKVVLKNYQEMVVEGCGCR
- further effect on number of sphere colonies at higher BMP4 concentration ([2]; 5-fold increase in BMP4 concentration, LIF and FGF2): did not further significantly attenuate the number of sphere colonies generated
- decrease in the number of sphere colonies generated ([2]; BMP4 5 ng/ml, ES cell cultures containing LIF and FGF2, 20 cells/ul, 7 days): greater than 50%

B3: CNTT: another member of the cytokine family of signaling molecules to which LIF belongs (protein, UniProt P26441 1-200, looked up)
Ciliary neurotrophic factor: MAFTEHSPLTPHRRDLCSRSIWLARKIRSDLTALTESYVKHQGLNKNINLDSADGMPVASTDQWSELTEAERLQENLQAYRTFHVLLARLLEDQQVHFTPTEGDFHQAIHTLLLQVAAFAYQIEELMILLEYKIPRNEADGMPINVGDGGLFEKKLWGLKVLQELSQWTVRSIHDLRFISSHQTGIPARGSHYIANNKKM
- primary colony formation, factor alone [2]: unable to substitute as a colony-promoting factor

B4: mCer-1: mouse Cerberus-like protein in supernatant from transiently transfected Neuro2a cells (protein)
chain: DLCVDGCQSQGSLSFPLLERGRRDLHVANHEEAEDKPDLFVAVPHLMGTSLAGEGQRQRGKMLSRLGRFWKKPETEFYPPRDVESDHVSSGMQAVTQPADGRKVERSPLQEEAKRFWHRFMFRKGPAFQGVILPIKSHEVHWETCRTVPFNQTIAHEDCQKVVVQNNLCFGKCSSIRFPGEGADAHSFCSHCSPTKFTTVHLMLNCTSPTPVVKMVMQVEECQCMVKTERGEERLLLAGSQGSFIPGLPASKTNP
- Otx-1 expression in ES derived neural colonies [3]: express Otx-1
- increase in the numbers of primary neural stem cell colonies ([2]; 20% (v/v) mCer-1 supernatant in 0.5 ml serum-free media+LIF, versus backbone vector supernatant): ~50%

B5: Noggin: BMP protein antagonist; human recombinant Noggin protein provided by Regeneron Pharmaceuticals Inc. (protein)
chain: QHYLHIRPAPSDNLPLVDLIEHPDPIFDPKEKDLNETLLRSLLGGHYDPGFMATSPPEDRPGGGGGAAGGAEDLAELDQLLRQRPSGAMPSEIKGLEFSEGLAQGKKQRLSKKLRRKLQMWLWSQTFCPVLYAWNDLGSRFWPRYVKVGSCFSKRSCSVPEGMVCKPSKSVHLTVLRWRCQRRGGQRCGWIPIQYPIISECKCSC
- increase in the number of sphere colonies generated ([2]; Noggin 100 μg/ml, primary ES cell cultures with LIF+FGF2, 7 days): 50%
- further effect on number of sphere colonies with rising Noggin concentration ([2]; Noggin from 10 μg/ml to 100 μg/ml): no additional increase in the numbers of sphere colonies generated
